Target: RRV ORF45 (R45), as expressed in RRV-infected rhesus fibroblasts (Rhesus monkey rhadinovirus (RRV), strain H26-95) (UniProt Q9J2K2)
Test: FRET or BRET; filter-based processed FRET (PFRET) on fixed RRV-infected RhF stained with labelled antibodies (Alexa488 donor, Alexa555 acceptor); regions of interest in the nuclei

| Substance | r (distance between the fluorophores, from FRET) [nm] |
| --- | --- |
| RSK2 (p90 ribosomal S6 kinase 2), endogenous in rhesus fibroblasts (natural protein) | 4.7 |
| pERK2 (phosphorylated, activated ERK2), endogenous in rhesus fibroblasts (from UniProt F7ECR3 1-360) (natural protein) | 4.5 |

From paper PMC3983062
